These results are taken from article PMC4992311, “The MarR-like protein PchR (YvmB) regulates expression of genes involved in pulcherriminic acid biosynthesis and in the initiation of sporulation in Bacillus subtilis”.

Data set [1] concerns the target His-tagged YvmB protein (MarR-like regulator YvmB, renamed PchR) (B. subtilis). Nature of the data set: SEC; purified YvmB^His-tag fractionated on a Superdex 200 gel-filtration column; major peak with an apparent molecular mass compared with the 19.2 kDa polypeptide; no effector added. A general note: SEC sorts molecules by how far they enter the pores of the column.

The target in data set [2] is T1, YvmB-His6 (PchR) (Bacillus subtilis (BSB1, trp+ 168 derivative?)) (UniProt P40762).
T1 sequence: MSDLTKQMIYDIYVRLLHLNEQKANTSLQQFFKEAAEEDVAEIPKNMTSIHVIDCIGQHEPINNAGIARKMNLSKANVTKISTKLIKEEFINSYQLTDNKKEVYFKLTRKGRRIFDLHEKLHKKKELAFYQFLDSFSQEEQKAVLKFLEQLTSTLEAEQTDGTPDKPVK
Nature of the data set: EMSA. Particulars: apparent Kd; EMSA: 1x = 20 mM Tris pH 8, 100 mM KCl, 0.5 mM DTT, 5 mM MgCl2, 0.05 mg/ml BSA, 0.05 mg/ml poly(dIdC) (from 5x buffer); 50 ng Cy5 DNA in 20 uL; 20 min at 30 C …. In general terms: In EMSA bound probe runs differently from free probe, usually more slowly.

The target in data set [3] is T2, YvmB-His6 (PchR) (Bacillus subtilis (BSB1, trp+ 168 …, UniProt P40762 1-169)).
T2 sequence: T1 sequence
Nature of the data set: EMSA; one complex; apparent Kd; EMSA: 1x = 20 mM Tris pH 8, 100 mM KCl, 0.5 mM DTT, 5 mM MgCl2, 0.05 mg/ml BSA, 0.05 mg/ml poly(dIdC) (from 5x buffer); 50 ng Cy5 DNA in 20 uL; 20 min at 30 C. Particulars: protein: recombinant; tags: C-terminal His6; chain copies: 2; label: 5' Cy5.

Data set [4] deals with T2, YvmB-His6 (PchR). Briefly: EMSA; two complexes; EMSA: 1x = 20 mM Tris pH 8, 100 mM KCl, 0.5 mM DTT, 5 mM MgCl2, 0.05 mg/ml BSA, 0.05 mg/ml poly(dIdC) (from 5x buffer); 50 ng Cy5 DNA in 20 uL; 20 min at 30 C. As to conditions: protein: recombinant; tags: C-terminal His6; chain copies: 2; label: 5' Cy5.

As usually defined, the stoichiometry N is the number of molecules, sites or subunits per partner or assembly. In the case of “His-tagged YvmB protein (MarR-like regulator YvmB, renamed PchR) (natural protein)”, the stoichiometry N in data set [1] worked out at 2.
Take P-yisI probe: the Kd in data set [2] was 2.5 nM.

B1: P1 probe (yvmB-yvmC intergenic, palindrome I) (dsDNA)
DNA 1: TTCCAAATGTTTTTTAAGATTTTAATAATCATTTTCAATACCCATATCATGATAAATGTTTACTAGTAAACATTAGTCATTTTATCCCTTTTCCTTCCAAACGTCAATAT
DNA 2: ATATTGACGTTTGGAAGGAAAAGGGATAAAATGACTAATGTTTACTAGTAAACATTTATCATGATATGGGTATTGAAAATGATTATTAAAATCTTAAAAAACATTTGGAA
For the molecule B1, in the data set with YvmB-His6 (PchR) [3], the Kd turned out to be 5 nM.

B2: P2 probe (yvmB-yvmC intergenic, palindrome II) (dsDNA)
DNA 1: CCAACAATTGACAACGAAAACAAGAAAAGATAAAATAAAATTGTTCACCAGTAAACGATTTGTTTTATTGTTTCATCGTAAACTATTATTCCTAAGAAAGAAGGTAGCCT
DNA 2: AGGCTACCTTCTTTCTTAGGAATAATAGTTTACGATGAAACAATAAAACAAATCGTTTACTGGTGAACAATTTTATTTTATCTTTTCTTGTTTTCGTTGTCAATTGTTGG
As for B2, the binding result with YvmB-His6 (PchR) [4] is given as “binds”.
